Target: human CD63 (human) (UniProt P08962)
Test: flow cytometry, HEK293 cells endogenously expressing human CD63

human CD63 (human), sequence (P08962 2-238 limits assumed): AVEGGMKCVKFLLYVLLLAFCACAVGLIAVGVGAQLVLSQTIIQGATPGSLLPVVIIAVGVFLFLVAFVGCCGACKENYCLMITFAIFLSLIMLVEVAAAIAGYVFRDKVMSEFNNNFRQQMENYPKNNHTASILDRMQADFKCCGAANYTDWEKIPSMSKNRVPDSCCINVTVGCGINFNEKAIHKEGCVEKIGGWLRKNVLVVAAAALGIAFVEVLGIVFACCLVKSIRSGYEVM

Row | HEK293 (S/N), MFI of antibody over wells with no antibody | Substance
1 | 1.4 | Isotype Control 1 (antibody)
2 | 1.5 | Isotype Control 2 (antibody)

From patent US20250171520A1
